A word on the IC50: it is the concentration at which inhibition is half-maximal.

Numbered stars: 1 amine (or outer) side, 2 acyl side, 3 side chain; on linkers, the order of the positions; unused ones are H or OH. Bridge positions count the residues as written; N and C are the ends. Side chains are listed from the residue outwards. Ends that are not written are not given here. * marks the point of attachment. C20 diacid = O=C(O)CCCCCCCCCCCCCCCCCCC(=O)*; γGlu = O=C(O)[C@H](CCC(=O)[*:2])N[*:1]; AEEA = NCCOCCOCC(=O)O

These results are taken from patent US20140087995A1 (published 2014).

For assay [1], the target named is T1, human calcitonin receptor (human, UniProt P30988 25-474).
T1 sequence (looked up): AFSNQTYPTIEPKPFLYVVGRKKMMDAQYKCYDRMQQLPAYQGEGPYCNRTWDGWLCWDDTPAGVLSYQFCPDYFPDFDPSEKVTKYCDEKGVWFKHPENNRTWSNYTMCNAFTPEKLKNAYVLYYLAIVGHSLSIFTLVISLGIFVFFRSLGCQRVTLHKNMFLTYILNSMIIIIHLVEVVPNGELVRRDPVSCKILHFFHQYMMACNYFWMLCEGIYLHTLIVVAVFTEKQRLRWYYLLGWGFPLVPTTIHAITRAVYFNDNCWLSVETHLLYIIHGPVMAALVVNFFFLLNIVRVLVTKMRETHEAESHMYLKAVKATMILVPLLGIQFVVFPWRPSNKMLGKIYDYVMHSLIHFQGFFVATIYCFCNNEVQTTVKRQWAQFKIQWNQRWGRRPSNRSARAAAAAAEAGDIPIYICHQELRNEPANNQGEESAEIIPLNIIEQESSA
The experiment in a line: cell-based or functional assay.

Assay [2] concerns the target T2, human calcitonin receptor (human, UniProt P30988 25-474).
T2 construct: whole, on cells; Used as cell membranes; also called hCTR; hCT
T2 sequence (looked up): T1 sequence (looked up)
The experiment in a line: ratio of hCTR IC50 to hAmylin-R IC50 (reference: human amylin receptor). An outline of the steps:
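Membranes (35 ng/μL final) + SPA beads, 50 mM Hepes pH 7.4 buffer with 1 mM CaCl2, 5 mM MgCl₂, 0.1% OA, 0.02% Tween20; 120 min, 25° C, shaking; centrifuged, counted; IC₅₀ by one-site binding competition.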

Assay [3] has as its target T3, human amylin receptor (amylin 3(a) receptor: human calcitonin receptor with RAMP-3) (human, UniProt P30988 25-474; O60896 24-148).
T3 construct: whole, on cells; Used as cell membranes of the Amylin 3(a)/CRE-luc BHK cells; the species of RAMP-3 is only implied by the name human amylin receptor; also called hAmylin-R; hAmylinR
T3 sequence (looked up) 1: T1 sequence (looked up)
T3 sequence (looked up) 2: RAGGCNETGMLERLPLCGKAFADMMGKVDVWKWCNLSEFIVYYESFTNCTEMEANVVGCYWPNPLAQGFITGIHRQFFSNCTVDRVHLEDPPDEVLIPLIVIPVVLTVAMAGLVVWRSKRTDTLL
Briefly: SPA competition on BHK cell membranes, 125I-rat amylin as radioligand (Assay V). As to the method:
The binding assay was performed using scintillation proximity assay (SPA) beads (RPNQ0001) from PerkinElmer and cell membranes from the Amylin 3(a)/CRE-luc cells (as described in Assay (II)) were used. Membranes were prepared in the following way; the cells were rinsed with PBS and incubated with Versene for approximately 5 min before harvesting. The cells were flushed with PBS and the cell-suspension was centrifuged for 5 min at 1000 rpm. Cells were homogenized (ultrathurrax) in a buffer containing 20 mM Na-HEPES and 10 mM EDTA (pH 7.4) and centrifuged at 20.000 rpm for 15 min. The resulting pellet was resuspended, homogenized and centrifuged (20.000 rpm, 15 min) in a buffer containing 20 mM Na-HEPES and 0.1 mM EDTA (pH 7.4, buffer 2). The resulting pellet was resuspended in buffer 2 and protein concentration was measured (BCA protein Assay, Pierce). The homogenate was kept cold during the whole procedure. The membranes were kept at −80° C. until use. The assay was performed in a 384 well Optiplate (PerkinElmer) in a total volume of 40 ul. Membranes were mixed with SPA beads. Final concentration of membranes 35 ng/μL final and SPA beads was 0.05 mg/well. Test-compounds were dissolved in DMSO and further diluted in assay buffer (50 mM Hepes, pH 7.4, 1 mM CaCl2, 5 mM MgCl₂, 0.1% OA and 0.02% Tween20). […] The final mixture was incubated with shaking at 400 rpm for 120 min at 25° C. prior to centrifugation (1500 rpm, 10 min). Samples were analyzed on TopCounter™ (Packard). The IC₅₀ was calculated using (one site binding competition analysis) GraphPad Prism5 as a measure of receptor affinity.

The target in assay [4] is T2, human calcitonin receptor. The experiment in a line: SPA competition on BHK cell membranes, 125I-calcitonin as radioligand (Assay VII). An outline of the steps: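 BHK hCTR membranes 35 ng/μL + SPA beads 0.05 mg/well; buffer 50 mM Hepes pH 7.4, 1 mM CaCl2, 5 mM MgCl₂, 0.1% OA, 0.02% Tween20. 120 min, 25° C., shaking. Scintillation count; IC50 by one-site binding competition.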

B1: N^ε1-[(4S)-4-carboxy-4-[[(4S)-4-carboxy-4-(19-carboxynonadecanoylamino)butanoyl]amino]butanoyl]-[Arg17,Pro21,Pro27,His34]-h-amylin (peptide)
peptide: K([γGlu-γGlu-C20 diacid])CNTATCATQRLANFLRHSSPNFGAIPSSTNVGHNTY-NH2
modifications: disulfide 2-7; N-terminus assumed
SMILES: CC[C@H](C)[C@H](NC(=O)[C@H](C)NC(=O)CNC(=O)[C@H](Cc1ccccc1)NC(=O)[C@H](CC(N)=O)NC(=O)[C@@H]1CCCN1C(=O)[C@H](CO)NC(=O)[C@H](CO)NC(=O)[C@H](Cc1c[nH]cn1)NC(=O)[C@H](CCCNC(=N)N)NC(=O)[C@H](CC(C)C)NC(=O)[C@H](Cc1ccccc1)NC(=O)[C@H](CC(N)=O)NC(=O)[C@H](C)NC(=O)[C@H](CC(C)C)NC(=O)[C@H](CCCNC(=N)N)NC(=O)[C@H](CCC(N)=O)NC(=O)[C@@H](NC(=O)[C@H](C)NC(=O)[C@@H]1CSSC[C@H](NC(=O)[C@@H](N)CCCCNC(=O)CC[C@H](NC(=O)CC[C@H](NC(=O)CCCCCCCCCCCCCCCCCCC(=O)O)C(=O)O)C(=O)O)C(=O)N[C@@H](CC(N)=O)C(=O)N[C@@H]([C@@H](C)O)C(=O)N[C@@H](C)C(=O)N[C@@H]([C@@H](C)O)C(=O)N1)[C@@H](C)O)C(=O)N1CCC[C@H]1C(=O)N[C@@H](CO)C(=O)N[C@@H](CO)C(=O)N[C@H](C(=O)N[C@@H](CC(N)=O)C(=O)N[C@H](C(=O)NCC(=O)N[C@@H](Cc1c[nH]cn1)C(=O)N[C@@H](CC(N)=O)C(=O)N[C@H](C(=O)N[C@@H](Cc1ccc(O)cc1)C(N)=O)[C@@H](C)O)C(C)C)[C@@H](C)O
notes: Synthetic acylated analogue of human amylin; also called compound 86
In the case of B1, the “hCTR funct. EC50 (pM)” value in assay [1] stood at 19200 pM.

B2: N^ε1N^ε1-[(4S)-4-carboxy-4-(19-carboxynonadecanoylamino)butanoyl]-[His14,Arg17,Pro21,Pro27,Pro34]-h-amylin (peptide)
peptide: K([γGlu-C20 diacid])CNTATCATQRLAHFLRHSSPNFGAIPSSTNVGPNTY-NH2
modifications: disulfide 2-7; N-terminus assumed
SMILES: CC[C@H](C)[C@H](NC(=O)[C@H](C)NC(=O)CNC(=O)[C@H](Cc1ccccc1)NC(=O)[C@H](CC(N)=O)NC(=O)[C@@H]1CCCN1C(=O)[C@H](CO)NC(=O)[C@H](CO)NC(=O)[C@H](Cc1c[nH]cn1)NC(=O)[C@H](CCCNC(=N)N)NC(=O)[C@H](CC(C)C)NC(=O)[C@H](Cc1ccccc1)NC(=O)[C@H](Cc1c[nH]cn1)NC(=O)[C@H](C)NC(=O)[C@H](CC(C)C)NC(=O)[C@H](CCCNC(=N)N)NC(=O)[C@H](CCC(N)=O)NC(=O)[C@@H](NC(=O)[C@H](C)NC(=O)[C@@H]1CSSC[C@H](NC(=O)[C@@H](N)CCCCNC(=O)CC[C@H](NC(=O)CCCCCCCCCCCCCCCCCCC(=O)O)C(=O)O)C(=O)N[C@@H](CC(N)=O)C(=O)N[C@@H]([C@@H](C)O)C(=O)N[C@@H](C)C(=O)N[C@@H]([C@@H](C)O)C(=O)N1)[C@@H](C)O)C(=O)N1CCC[C@H]1C(=O)N[C@@H](CO)C(=O)N[C@@H](CO)C(=O)N[C@H](C(=O)N[C@@H](CC(N)=O)C(=O)N[C@H](C(=O)NCC(=O)N1CCC[C@H]1C(=O)N[C@@H](CC(N)=O)C(=O)N[C@H](C(=O)N[C@@H](Cc1ccc(O)cc1)C(N)=O)[C@@H](C)O)C(C)C)[C@@H](C)O
notes: Synthetic acylated analogue of human amylin; also called compound 67
Consider B2, for which, in assay [1], the “Ratio hCT/hAmylin funct.” value amounted to 5.2 and the “hCTR funct. EC50 (pM)” value was 354 pM.

B3: N^ε1-[(4S)-4-carboxy-4-[[(4S)-4-carboxy-4-(19-carboxynonadecanoylamino)butanoyl]amino]butanoyl]-[Glu14,Arg17,Pro21,Pro27,His34]-h-amylin (peptide)
peptide: K([γGlu-γGlu-C20 diacid])CNTATCATQRLAEFLRHSSPNFGAIPSSTNVGHNTY-NH2
modifications: disulfide 2-7; N-terminus assumed
SMILES: CC[C@H](C)[C@H](NC(=O)[C@H](C)NC(=O)CNC(=O)[C@H](Cc1ccccc1)NC(=O)[C@H](CC(N)=O)NC(=O)[C@@H]1CCCN1C(=O)[C@H](CO)NC(=O)[C@H](CO)NC(=O)[C@H](Cc1c[nH]cn1)NC(=O)[C@H](CCCNC(=N)N)NC(=O)[C@H](CC(C)C)NC(=O)[C@H](Cc1ccccc1)NC(=O)[C@H](CCC(=O)O)NC(=O)[C@H](C)NC(=O)[C@H](CC(C)C)NC(=O)[C@H](CCCNC(=N)N)NC(=O)[C@H](CCC(N)=O)NC(=O)[C@@H](NC(=O)[C@H](C)NC(=O)[C@@H]1CSSC[C@H](NC(=O)[C@@H](N)CCCCNC(=O)CC[C@H](NC(=O)CC[C@H](NC(=O)CCCCCCCCCCCCCCCCCCC(=O)O)C(=O)O)C(=O)O)C(=O)N[C@@H](CC(N)=O)C(=O)N[C@@H]([C@@H](C)O)C(=O)N[C@@H](C)C(=O)N[C@@H]([C@@H](C)O)C(=O)N1)[C@@H](C)O)C(=O)N1CCC[C@H]1C(=O)N[C@@H](CO)C(=O)N[C@@H](CO)C(=O)N[C@H](C(=O)N[C@@H](CC(N)=O)C(=O)N[C@H](C(=O)NCC(=O)N[C@@H](Cc1c[nH]cn1)C(=O)N[C@@H](CC(N)=O)C(=O)N[C@H](C(=O)N[C@@H](Cc1ccc(O)cc1)C(N)=O)[C@@H](C)O)C(C)C)[C@@H](C)O
notes: Synthetic acylated analogue of human amylin; also called compound 87
Turning to B3, in assay [1], the “Ratio hCT/hAmylin funct.” value came out at 3.8 and the “hCTR funct. EC50 (pM)” value worked out at 1100 pM.

B4: N^ε1-[2-[2-[2-[[2-[2-[2-[[(4S)-4-carboxy-4-(19-carboxynonadecanoylamino)butanoyl]amino]ethoxy]ethoxy]acetyl]amino]ethoxy]ethoxy]acetyl]-[Arg17,Pro21,Pro27,Arg34 … (peptide)
peptide: K([AEEA-AEEA-γGlu-C20 diacid])CNTATCATQRLANFLRHSSPNFGAIPSSTNVGRNTY-NH2
modifications: disulfide 2-7; N-terminus assumed
SMILES: CC[C@H](C)[C@H](NC(=O)[C@H](C)NC(=O)CNC(=O)[C@H](Cc1ccccc1)NC(=O)[C@H](CC(N)=O)NC(=O)[C@@H]1CCCN1C(=O)[C@H](CO)NC(=O)[C@H](CO)NC(=O)[C@H](Cc1c[nH]cn1)NC(=O)[C@H](CCCNC(=N)N)NC(=O)[C@H](CC(C)C)NC(=O)[C@H](Cc1ccccc1)NC(=O)[C@H](CC(N)=O)NC(=O)[C@H](C)NC(=O)[C@H](CC(C)C)NC(=O)[C@H](CCCNC(=N)N)NC(=O)[C@H](CCC(N)=O)NC(=O)[C@@H](NC(=O)[C@H](C)NC(=O)[C@@H]1CSSC[C@H](NC(=O)[C@@H](N)CCCCNC(=O)COCCOCCNC(=O)COCCOCCNC(=O)CC[C@H](NC(=O)CCCCCCCCCCCCCCCCCCC(=O)O)C(=O)O)C(=O)N[C@@H](CC(N)=O)C(=O)N[C@@H]([C@@H](C)O)C(=O)N[C@@H](C)C(=O)N[C@@H]([C@@H](C)O)C(=O)N1)[C@@H](C)O)C(=O)N1CCC[C@H]1C(=O)N[C@@H](CO)C(=O)N[C@@H](CO)C(=O)N[C@H](C(=O)N[C@@H](CC(N)=O)C(=O)N[C@H](C(=O)NCC(=O)N[C@@H](CCCNC(=N)N)C(=O)N[C@@H](CC(N)=O)C(=O)N[C@H](C(=O)N[C@@H](Cc1ccc(O)cc1)C(N)=O)[C@@H](C)O)C(C)C)[C@@H](C)O
notes: also called compound 95
On to B4, for which the “Ratio hCT/hAmylin binding” value in assay [2] stood at 63.4. The IC50 was found to be 0.967 nM in assay [3] and 61.3 nM in assay [4].
